Paper PMC3495951

Target: EGFP-H2B (UniProt P06899)
Test: FRET or BRET; FLIM-FRET in living cells at 37°C; EGFP fusion as donor, mCherry fusion as acceptor; two-photon excitation at 890 nm; FRET efficiency = 1 - (tauDA/tauD), tauD from cells with mCherry-C1; control cells and TSA-treated cells

FRET efficiency (minor population): 6%
Substance: mCherry-SRSF1 (from UniProt Q07955 1-248) (natural protein)
